Results on 28 sequences are retold here after the supplement of paper PMC11865577.

What all share (test): pull-down binding Z-score (relative to library population); higher = stronger binding
The test system of data set [1] is G-clamp-N3 (biotin conjugate). Particulars: RNA library: Library-1 (pre-miRNA loops + repeats). In short, it runs like this: (§1)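 Biotin-conjugated small molecule (100 pmol) on streptavidin beads was incubated with 1 μg of heat-folded Cy5- or Cy3-end-labelled RNA library in phosphate/NaCl/KCl buffer at 25 °C for 60 min. Following three washes, RNA was eluted with hot SDS and hybridised at 55.5 °C for 20 h to a DNA barcode microarray. The binding value is a Z-score computed from the library mean and standard deviation, after subtraction of beads without compound and averaging of barcoded replicate probes with the highest and lowest excluded.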

Data set [2] deals with TO-3-N3 (biotin conjugate). Particulars: RNA library: Library-2. An outline of the steps: as §1
The subject of data set [3] is TO-3-N3-2 (biotin conjugate). Particulars: RNA library: Library-2. An outline of the steps:
as §1

The next data set has as its system TO-N3 (biotin conjugate). To be noted: RNA library: Library-2. An outline of the steps:
as §1

The subject of data set [4] is TO-N3-2 (biotin conjugate). To be noted: RNA library: Library-2. An outline of the steps:
as §1

Take “AGGCUGUCUUCAUUCCCUCUUGACCACCC [hsa-mir-6795]”: the “pull-down binding Z-score” value was -1.03 in data set [1]; 1.19 in data set [2]; 0.213 in data set [3]; 1.29 with TO-N3 (biotin conjugate); 0.709 in data set [4].
The corresponding values for GGGCCCCAAGACUCGGGGUUU [hsa-mir-4651] are -0.146, 0.633, -0.00221, 0.65 and 0.197.
“CUGUGGUGGCUGCUCAUGCACCACGG [hsa-mir-105-1]”: the “pull-down binding Z-score” value in data set [1] is 1.44; in data set [2] it was -0.868; in data set [3], -0.574; in the data set with TO-N3 (biotin conjugate), -1.05; in data set [4], -0.558.
The corresponding values for “AUAGCACAAAGUCUUAUGGUACUGU [hsa-mir-3169]” are 1.12, 0.174, 0.253, 0.199 and -0.178.
Taken in the same sequence, the figures for UUUCUAUAACUGGAUGAAA [hsa-mir-498] were -0.372, -0.457, -0.431, -0.488 and -0.778.
Taken in the same sequence, the figures for “UGCAGUUAGUGAAGCAGCUUAGAAUCUACUGCC [hsa-mir-18b]” were 0.0114, 0.192, 0.625, 0.989 and 1.47.
With “UUUGUCAUUUAAAAGUAAUGGCAAA [hsa-mir-548ae-2]”, the “pull-down binding Z-score” value is 0.815 in data set [1]; 0.207 in data set [2]; 0.00258 in data set [3]; -0.203 in the data set on TO-N3 (biotin conjugate); -0.902 in data set [4].
Taken in the same sequence, the figures for “GACAGGGCAGAGGGUUGCGCCCCCUC [hsa-mir-6511b-1_6511b-2_6511a-2_6511a-3_6511a-1_6511a-4]” were 1.05, 0.412, 0.284, 0.754 and 1.23.
Taken in the same sequence, the figures for “CAGACGGCUUUCUCUCCGAAUGUCUG [hsa-mir-2276]” were -0.958, -0.908, -0.376, -1.12 and -0.639.
“ACAGUGGCCACAUCUCCAC [hsa-mir-1184-3_1184-2_1184-1]”: the “pull-down binding Z-score” value was -1.28 in data set [1]; 1.11 in data set [2]; 0.472 in data set [3]; 1.17 with TO-N3 (biotin conjugate); 0.582 in data set [4].
Taken in the same sequence, the figures for “UUUGCUAUUUUUUUUUAAUGGCAAA [hsa-mir-548ac]” were 0.725, -0.607, -0.0611, -1.01 and -1.46.
Taken in the same sequence, the figures for “GAGGGGCUUACUGCCCUGUGGGGCUCUCUGGACCCAGUGCCAUGCUUCUC [hsa-mir-6728]” were 0.541, -0.224, -0.363, 0.295 and 1.23.
Taken in the same sequence, the figures for “UGGUGGAGAUGGAGAGCCCUGAGCCUCCA [hsa-mir-6777]” were 0.173, 0.164, -0.0154, 0.727 and 1.17.
CCGAGUGAUCUCGGU [hsa-mir-8071-1_8071-2]: the “pull-down binding Z-score” value in data set [1] is -1.48; in data set [2], -0.581; in data set [3], -0.324; in the data set with TO-N3 (biotin conjugate), -0.685; in data set [4], -0.0845.
“UCUUUGGUAAUAAGGUUUGGCAAAGA [hsa-mir-576]”: the “pull-down binding Z-score” value is 1.47 in data set [1]; 1.04 in data set [2]; 0.625 in data set [3]; 0.862 with TO-N3 (biotin conjugate); -0.0599 in data set [4].
In the case of “GUGUGGAGAGAGCACUGAGCCUGCCCACC [hsa-mir-6849]”, the “pull-down binding Z-score” value in data set [1] was -0.498; in data set [2], -0.134; in data set [3] it was -0.152; in the data set with TO-N3 (biotin conjugate), 0.55; in data set [4] it was 1.45.
Taken in the same sequence, the figures for CCAGUGGUUUUCCUUGACUGUG [hsa-mir-298] were 1.54, -0.421, -0.472, -0.416 and 0.0607.
Taken in the same sequence, the figures for “ACCUAACACACUGCCUUUUAUGUGGUAGGU [hsa-mir-5094]” were -1.19, -0.678, -0.66, -1.02 and -1.14.
The corresponding values for CAGACAAUAUAGCUGAGUUUGUCUG [hsa-mir-215] are -0.604, -0.801, -0.547, -1.24 and -1.03.
For “UGCAGUGAGCAACCUACACAACUGCA [hsa-mir-5589]”, the “pull-down binding Z-score” value in data set [1] is -0.716; in data set [2] it was -0.0632; in data set [3], -0.317; in the data set with TO-N3 (biotin conjugate) it was -0.0697; in data set [4], -0.188.
Taken in the same sequence, the figures for UUUGCUACUGAAAGUAAUGGCAAA [hsa-mir-548z] were 0.365, -0.614, -0.468, -0.792 and -0.632.
The corresponding values for AGUCACUUAGAUUACAUGUCACU [hsa-mir-892c] are -1.24, 0.00628, 0.0543, -0.172 and -0.486.
On to GGAUAGAAACUAUUAUUCUAUUC [hsa-mir-664a], for which the “pull-down binding Z-score” value is -0.818 in data set [1]; -0.357 in data set [2]; -0.303 in data set [3]; -0.784 in the data set on TO-N3 (biotin conjugate); -1.38 in data set [4].
Taken in the same sequence, the figures for UGUUGAGCGCAGUAAGACAACA [hsa-mir-3529] were 0.892, -0.51, -0.0511, -0.482 and -0.0925.
On to “UUCCUUGUCUGUAGCCAUGUCUAUGGGCUCUUGAG [hsa-mir-571]”, for which the “pull-down binding Z-score” value in data set [1] was -0.205; in data set [2] it was 0.494; in data set [3], -0.0353; with TO-N3 (biotin conjugate), 0.461; in data set [4], -0.131.
Taken in the same sequence, the figures for CACAAAUAUGGCUCUUUGUG [hsa-mir-4474] were -0.738, -0.637, -0.469, -0.809 and -0.657.
Taken in the same sequence, the figures for “GGGCCAGUCUGACCGUUUCUAGGCG [hsa-mir-551a]” were 0.753, 0.541, 0.662, 1.41 and 1.75.
Regarding “UUUACCAUUACUUUCAAUGGCAAA [hsa-mir-548a-3]”, the “pull-down binding Z-score” value in data set [1] is -0.644; in data set [2], -1.16; in data set [3], -0.786; in the data set on TO-N3 (biotin conjugate), -1.76; in data set [4] it was -1.82.
